For this data set, the target named is T1, GST-ARF2 N-terminus (ARF2-N1-470, DNA-binding domain) (Arabidopsis thaliana, UniProt Q94JM3 1-470).
T1 sequence: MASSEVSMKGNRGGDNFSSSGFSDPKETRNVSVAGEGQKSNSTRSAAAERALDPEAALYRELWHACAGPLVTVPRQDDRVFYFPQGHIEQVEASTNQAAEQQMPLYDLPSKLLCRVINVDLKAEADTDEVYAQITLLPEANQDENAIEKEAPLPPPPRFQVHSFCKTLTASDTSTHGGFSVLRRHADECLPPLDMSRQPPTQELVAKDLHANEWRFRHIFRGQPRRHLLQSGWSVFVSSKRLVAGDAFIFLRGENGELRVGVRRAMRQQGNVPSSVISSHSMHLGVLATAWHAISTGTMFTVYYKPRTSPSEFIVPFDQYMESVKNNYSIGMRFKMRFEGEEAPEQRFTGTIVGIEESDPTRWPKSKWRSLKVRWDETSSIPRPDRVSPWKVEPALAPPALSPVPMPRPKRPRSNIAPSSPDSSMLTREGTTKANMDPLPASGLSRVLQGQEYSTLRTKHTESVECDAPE
Nature of the data set: EMSA; poly(dI-dC); EMSA: 5x buffer 50 mM HEPES-KOH pH 7.5, 375 mM KCl, 6.25 mM MgCl (so in the source), 1 mM DTT, 0.5 ug/mL BSA, 25% glycerol; 25 fmol probe, 6 ug protein, 1 ug poly(dI-dC) in 20 ul, room temperature 20 min; 6.5% native PAGE in TGE pH 8.3. Conditions: protein: recombinant; tags: GST; chain copies: 2; blunt. In general terms: Mobility shift assays separate free from complexed probe on a gel.

B1: HB33 promoter probe (dsDNA)
DNA 1: CCAAATTGTCTCTTATAATCCGATCTCAAAGGTTGGCTTGTTGGGAGCACTGAGACATCAAAC
DNA 2: GTTTGATGTCTCAGTGCTCCCAACAAGCCAACCTTTGAGATCGGATTATAAGAGACAATTTGG
Turning to B1, the binding result is “binds”.

B2: HB33 promoter mProbe (mP) (dsDNA)
DNA 1: CCAAATTGACACTTATAATCCGATCTCAAAGGTTGGCTTGTTGGGAGCACTGTGTCATCAAAC
DNA 2: GTTTGATGACACAGTGCTCCCAACAAGCCAACCTTTGAGATCGGATTATAAGTGTCAATTTGG
Take B2: the binding result was “no binding”.

Values taken from PMC3136439, “Auxin Response Factor2 (ARF2) and Its Regulated Homeodomain Gene HB33 Mediate Abscisic Acid Response in Arabidopsis”.
